Test [1] concerns the target human 4-1BB on the surface of HEK293-Hu4-1BB cells (human) (UniProt Q07011). Nature of the test: FACS on HEK293 cells highly expressing human 4-1BB.
Test [2] shares this target. Nature of the test: cell-based or functional assay.

Chain of human 4-1BB on the surface of HEK293-Hu4-1BB cells (human) (Q07011 24-255): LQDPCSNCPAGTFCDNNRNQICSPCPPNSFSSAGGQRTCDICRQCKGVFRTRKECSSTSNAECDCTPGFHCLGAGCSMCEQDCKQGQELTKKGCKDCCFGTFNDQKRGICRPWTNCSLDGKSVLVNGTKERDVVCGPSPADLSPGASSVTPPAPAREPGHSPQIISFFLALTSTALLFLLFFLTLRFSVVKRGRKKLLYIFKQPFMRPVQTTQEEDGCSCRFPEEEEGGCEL

The substance isotype IgG1 antibody came in with a Maximal fluorescence value in test [1] of 67. Besides, in test [2], the Emax, 4-1BB/NF-κB luciferase reporter, FcγRIIb cross-linking (relative to antibody-free group) was determined as 1.12 and the Emax, 4-1BB/NF-κB luciferase reporter, no FcγRIIb cross-linking (relative to antibody-free group) is 1.1.

Values taken from US20250026842A1.
